In patent US20230242634A1:

Target: human TNF-α (human) (UniProt P01375)
Assay: cell-based or functional assay

Sequence of UniProt P01375 (P01375 77-233 limits assumed): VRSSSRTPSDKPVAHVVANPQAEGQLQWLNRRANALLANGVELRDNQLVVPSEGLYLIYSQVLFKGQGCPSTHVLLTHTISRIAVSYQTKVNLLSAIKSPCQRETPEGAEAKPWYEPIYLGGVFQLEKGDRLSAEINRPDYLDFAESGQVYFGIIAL

TA001 (the original Adalimumab) (antibody)
IC50 (M), TNF-α-mediated killing of L929 cells (CCK-8): 1.48e-08 M
